Results as given in publication PMC3413289 (Science signaling, 2012).

B1: CC-L4-PlexinA1_(cyto) (other)
chain: VKQLEDKVEELLSKNAHLENEVARLKKLVGSSGSRDADRTLKRLQLQMDNLESRVALECKEAFAELQTDIHELTSDLDGAGIPFLDYRTYAMRVLFPGIEDHPVLKEMEVQANVEKSLTLFGQLLTKKHFLLTFIRTLEAQRSFSMRDRGNVASLIMTALQGEMEYATGVLKQLLSDLIEKNLESKNHPKLLLRRTESVAEKMLTNWFTFLLYKFLKECAGEPLFMLYCAIKQQMEKGPIDAITGEARYSLSEDKLIRQQIDYKTLTLNCVNPEHENAPEVPVKGLNCDTVTQVKEKLLDAVYKGVPYSQRPKAGDMDLEWRQGRMARIILQDEDVTTKIDNDWKRLNTLAHYQVTDGSSVALVPKQTSAYNISNSSTFTKSLSRYESMLRTASSPDSLRSRTPMITPDLESGTKLWHLVKNHDHLDQREGDRGSKMVSEIYLTRLLATKGTLQKFVDDLFETIFSTAHRGSALPLAIKYMFDFLDEQADKHQIHDSDVRHTWKSNCLPLRFWVNVIKNPQFVFDIHKNSITDACLSVVAQTFMDSCSTSEHKLGKDSPSNKLLYAKDIPNYKSWVERYYADIAKMPAISDQDMSAYLAEQSRLHLSQFNSMSALHEIYSYIAKYKDEILVALEKDEQARRQRLRSKLEQVVDTMALSS
B2: coiled-coil PlexinA1_(cyto) fusion with the 7-residue linker (other)
chain: VKQLEDKVEELLSKNAHLENEVARLKKLVGSSGSSGSRDADRTLKRLQLQMDNLESRVALECKEAFAELQTDIHELTSDLDGAGIPFLDYRTYAMRVLFPGIEDHPVLKEMEVQANVEKSLTLFGQLLTKKHFLLTFIRTLEAQRSFSMRDRGNVASLIMTALQGEMEYATGVLKQLLSDLIEKNLESKNHPKLLLRRTESVAEKMLTNWFTFLLYKFLKECAGEPLFMLYCAIKQQMEKGPIDAITGEARYSLSEDKLIRQQIDYKTLTLNCVNPEHENAPEVPVKGLNCDTVTQVKEKLLDAVYKGVPYSQRPKAGDMDLEWRQGRMARIILQDEDVTTKIDNDWKRLNTLAHYQVTDGSSVALVPKQTSAYNISNSSTFTKSLSRYESMLRTASSPDSLRSRTPMITPDLESGTKLWHLVKNHDHLDQREGDRGSKMVSEIYLTRLLATKGTLQKFVDDLFETIFSTAHRGSALPLAIKYMFDFLDEQADKHQIHDSDVRHTWKSNCLPLRFWVNVIKNPQFVFDIHKNSITDACLSVVAQTFMDSCSTSEHKLGKDSPSNKLLYAKDIPNYKSWVERYYADIAKMPAISDQDMSAYLAEQSRLHLSQFNSMSALHEIYSYIAKYKDEILVALEKDEQARRQRLRSKLEQVVDTMALSS
B3: coiled-coil PlexinA1_(cyto) fusion with the 1-residue linker (other)
chain: VKQLEDKVEELLSKNAHLENEVARLKKLVGSRDADRTLKRLQLQMDNLESRVALECKEAFAELQTDIHELTSDLDGAGIPFLDYRTYAMRVLFPGIEDHPVLKEMEVQANVEKSLTLFGQLLTKKHFLLTFIRTLEAQRSFSMRDRGNVASLIMTALQGEMEYATGVLKQLLSDLIEKNLESKNHPKLLLRRTESVAEKMLTNWFTFLLYKFLKECAGEPLFMLYCAIKQQMEKGPIDAITGEARYSLSEDKLIRQQIDYKTLTLNCVNPEHENAPEVPVKGLNCDTVTQVKEKLLDAVYKGVPYSQRPKAGDMDLEWRQGRMARIILQDEDVTTKIDNDWKRLNTLAHYQVTDGSSVALVPKQTSAYNISNSSTFTKSLSRYESMLRTASSPDSLRSRTPMITPDLESGTKLWHLVKNHDHLDQREGDRGSKMVSEIYLTRLLATKGTLQKFVDDLFETIFSTAHRGSALPLAIKYMFDFLDEQADKHQIHDSDVRHTWKSNCLPLRFWVNVIKNPQFVFDIHKNSITDACLSVVAQTFMDSCSTSEHKLGKDSPSNKLLYAKDIPNYKSWVERYYADIAKMPAISDQDMSAYLAEQSRLHLSQFNSMSALHEIYSYIAKYKDEILVALEKDEQARRQRLRSKLEQVVDTMALSS

Target: the molecule itself
Assay: SEC

Binding result, binds:
B1
B2
B3
